According to publication doi:10.1101/2025.03.17.643633 (bioRxiv, 2025):

Target: T1, TIE1 ectodomain, aa 21-760 (human, UniProt P35590-1 21-760)
T1 sequence: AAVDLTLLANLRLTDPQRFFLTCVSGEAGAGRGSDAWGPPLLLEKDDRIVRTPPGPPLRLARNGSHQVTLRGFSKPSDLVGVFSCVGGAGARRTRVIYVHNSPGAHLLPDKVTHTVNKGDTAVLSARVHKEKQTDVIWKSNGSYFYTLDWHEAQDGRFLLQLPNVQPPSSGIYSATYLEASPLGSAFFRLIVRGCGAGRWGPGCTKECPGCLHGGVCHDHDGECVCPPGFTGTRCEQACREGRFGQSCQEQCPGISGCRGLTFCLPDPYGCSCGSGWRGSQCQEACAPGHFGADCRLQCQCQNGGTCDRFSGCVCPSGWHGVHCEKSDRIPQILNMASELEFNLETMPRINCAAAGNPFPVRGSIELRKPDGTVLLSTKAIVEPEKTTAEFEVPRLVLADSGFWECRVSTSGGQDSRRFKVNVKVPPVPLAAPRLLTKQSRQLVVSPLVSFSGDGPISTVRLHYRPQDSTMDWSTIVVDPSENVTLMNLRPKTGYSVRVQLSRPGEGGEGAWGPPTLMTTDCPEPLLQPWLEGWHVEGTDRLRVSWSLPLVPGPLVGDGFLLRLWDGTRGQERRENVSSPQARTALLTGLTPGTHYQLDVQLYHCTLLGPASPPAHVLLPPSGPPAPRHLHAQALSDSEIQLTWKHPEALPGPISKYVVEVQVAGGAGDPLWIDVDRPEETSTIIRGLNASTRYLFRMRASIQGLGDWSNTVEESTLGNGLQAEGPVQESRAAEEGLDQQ
Assay: SPR

B1: Human SVEP1-Strep II recombinant protein, CCP15 to CCP24, aa 2261-2890 (70 kDa version) (domain or fragment)
chain: PLDCGKPPPIQNGFMKGENFEVGSKVQFFCNEGYELVGDSSWTCQKSGKWNKKSNPKCMPAKCPEPPLLENQLVLKELTTEVGVVTFSCKEGHVLQGPSVLKCLPSQQWNDSFPVCKIVLCTPPPLISFGVPIPSSALHFGSTVKYSCVGGFFLRGNSTTLCQPDGTWSSPLPECVPVECPQPEEIPNGIIDVQGLAYLSTALYTCKPGFELVGNTTTLCGENGHWLGGKPTCKAIECLKPKEILNGKFSYTDLHYGQTVTYSCNRGFRLEGPSALTCLETGDWDVDAPSCNAIHCDSPQPIENGFVEGADYSYGAIIIYSCFPGFQVAGHAMQTCEESGWSSSIPTCMPIDCGLPPHIDFGDCTKLKDDQGYFEQEDDMMEVPYVTPHPPYHLGAVAKTWENTKESPATHSSNFLYGTMVSYTCNPGYELLGNPVLICQEDGTWNGSAPSCISIECDLPTAPENGFLRFTETSMGSAVQYSCKPGHILAGSDLRLCLENRKWSGASPRCEAISCKKPNPVMNGSIKGSNYTYLSTLYYECDPGYVLNGTERRTCQDDKNWDEDEPICIPVDCSSPPVSANGQVRGDEYTFQKEIEYTCNEGFLLEGARSRVCLANGSWSGATPDCVPVR
For B1, the Kd was 62.5 nM.
